Data set [1] has as its target T1, Cac1C (C-terminal WHD) (budding yeast, UniProt Q12495 520-606). Put plainly: EMSA. (In general: In EMSA bound probe runs differently from free probe, usually more slowly.)
The target of data set [2] is T1, Cac1C (C-terminal WHD). Put plainly: EMSA. The source holds these as a separate data set.
A further data set concerns the target Cac1C K577E (budding yeast, UniProt Q12495 520-606, K577E). As to the kind of experiment: EMSA.
The next data set addresses Cac1C K553E (budding yeast, UniProt Q12495 520-606, K553E). Put plainly: EMSA.
The target in the next data set is Cac1C K583E (budding yeast, UniProt Q12495 520-606, K583E). As to the kind of experiment: EMSA.
The target of data set [3] is T1, Cac1C (C-terminal WHD). Put plainly: EMSA. The source holds these as a separate data set.
For the next data set, the target named is T2, Mmp150C (mouse, UniProt Q9QWF0 706-827).
T2 sequence: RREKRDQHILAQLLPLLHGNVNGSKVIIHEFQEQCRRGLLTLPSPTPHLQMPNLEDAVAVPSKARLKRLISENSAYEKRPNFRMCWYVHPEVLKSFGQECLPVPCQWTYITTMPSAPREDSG
Put plainly: EMSA.

The next data set addresses Hsp150C (human, UniProt Q13111 727-854). As to the kind of experiment: EMSA.
Another data set concerns the target T3, Mmp150C 4KE (mouse, UniProt Q9QWF0 706-827, K768E;R770E;K772E;R773E).
T3 sequence: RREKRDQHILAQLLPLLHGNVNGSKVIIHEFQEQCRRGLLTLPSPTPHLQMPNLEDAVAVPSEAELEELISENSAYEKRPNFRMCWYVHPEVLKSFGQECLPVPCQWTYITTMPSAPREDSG
As to the kind of experiment: EMSA.

For data set [4], the target named is Cac1 (in CAF-1);GST-Cac2;Cac3 (budding yeast (Saccharomyces …, UniProt Q12495;Q04199;P13712 91-606;1-438;1-422, ||)). Put plainly: pull-down.
Data set [5] addresses T1, Cac1C (C-terminal WHD). Put plainly: pull-down.
In a further data set the target is GST-Cac2 (budding yeast, UniProt Q04199 1-438). Put plainly: pull-down.
The target in data set [6] is T1, Cac1C (C-terminal WHD). Put plainly: EMSA. The source holds these as a separate data set.

Experimental findings from article PMC4914081 are described below.

T1 sequence (Q12495 520-606): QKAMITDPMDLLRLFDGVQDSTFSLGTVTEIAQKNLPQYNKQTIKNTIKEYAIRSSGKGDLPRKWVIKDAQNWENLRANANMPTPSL
Hsp150C, sequence (Q13111 727-854): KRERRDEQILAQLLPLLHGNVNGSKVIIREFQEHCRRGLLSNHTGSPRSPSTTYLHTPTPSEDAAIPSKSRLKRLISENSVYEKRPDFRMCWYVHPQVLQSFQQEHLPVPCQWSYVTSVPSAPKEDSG
GST-Cac2, sequence (Q04199 1-438): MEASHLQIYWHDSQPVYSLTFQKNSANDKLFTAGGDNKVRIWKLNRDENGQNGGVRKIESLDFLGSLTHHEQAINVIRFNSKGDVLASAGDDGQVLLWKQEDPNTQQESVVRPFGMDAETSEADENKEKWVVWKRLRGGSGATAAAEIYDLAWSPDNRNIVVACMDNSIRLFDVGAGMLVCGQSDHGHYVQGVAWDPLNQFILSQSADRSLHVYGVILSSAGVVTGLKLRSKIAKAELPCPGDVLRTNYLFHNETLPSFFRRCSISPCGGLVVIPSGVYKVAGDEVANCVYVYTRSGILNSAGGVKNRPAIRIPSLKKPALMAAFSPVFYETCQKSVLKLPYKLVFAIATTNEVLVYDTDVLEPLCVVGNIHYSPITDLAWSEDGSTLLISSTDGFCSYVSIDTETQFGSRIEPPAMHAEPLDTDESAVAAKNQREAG
Cac1C K577E, sequence (Q12495 520-606 K577E): as the sequence (Q12495 520-606) above, with K58E counted along it
Cac1C K583E, sequence (Q12495 520-606 K583E): as the sequence (Q12495 520-606) above, with K64E counted along it
Cac1C K553E, sequence (Q12495 520-606 K553E): as the sequence (Q12495 520-606) above, with K34E counted along it
Cac1 (in CAF-1);GST-Cac2;Cac3 (budding yeast, sequence (Q12495 91-606, chain 1 of 3): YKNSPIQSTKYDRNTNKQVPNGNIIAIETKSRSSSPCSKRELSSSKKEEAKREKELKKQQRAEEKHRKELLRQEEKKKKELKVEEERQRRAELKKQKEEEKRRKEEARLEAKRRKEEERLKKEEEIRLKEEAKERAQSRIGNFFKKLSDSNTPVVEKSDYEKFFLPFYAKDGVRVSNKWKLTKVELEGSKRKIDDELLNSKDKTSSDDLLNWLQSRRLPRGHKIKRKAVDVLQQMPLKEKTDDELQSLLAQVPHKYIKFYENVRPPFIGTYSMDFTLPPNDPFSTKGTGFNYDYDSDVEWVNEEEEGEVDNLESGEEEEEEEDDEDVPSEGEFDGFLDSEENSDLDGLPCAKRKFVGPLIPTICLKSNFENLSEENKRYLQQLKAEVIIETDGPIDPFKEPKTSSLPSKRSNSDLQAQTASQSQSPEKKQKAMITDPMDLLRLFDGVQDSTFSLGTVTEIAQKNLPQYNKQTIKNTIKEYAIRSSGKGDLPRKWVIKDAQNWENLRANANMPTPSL
Cac1 (in CAF-1);GST-Cac2;Cac3 (budding yeast, sequence (Q04199 1-438, chain 2 of 3): as the sequence (Q04199 1-438) above
Cac1 (in CAF-1);GST-Cac2;Cac3 (budding yeast, sequence (P13712 whole entry, chain 3 of 3): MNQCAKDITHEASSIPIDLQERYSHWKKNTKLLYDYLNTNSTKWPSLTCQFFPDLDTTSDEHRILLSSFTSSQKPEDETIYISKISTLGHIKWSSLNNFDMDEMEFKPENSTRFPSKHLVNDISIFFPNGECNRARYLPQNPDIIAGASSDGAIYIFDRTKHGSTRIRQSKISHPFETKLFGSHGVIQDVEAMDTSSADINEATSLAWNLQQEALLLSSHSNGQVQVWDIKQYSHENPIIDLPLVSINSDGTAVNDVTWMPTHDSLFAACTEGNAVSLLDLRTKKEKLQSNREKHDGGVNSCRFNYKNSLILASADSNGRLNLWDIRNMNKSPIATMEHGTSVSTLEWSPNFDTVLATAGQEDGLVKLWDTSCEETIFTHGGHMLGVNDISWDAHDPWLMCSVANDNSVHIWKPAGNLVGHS

B1: AT-rich (dsDNA)
DNA 1: ATAATCGATATT
DNA 2: AATATCGATTAT
On to B1, for which the binding result in the data set with Cac1C (C-terminal WHD) [1] is reported as “binds”.

B2: GC-rich (dsDNA)
DNA 1: ATCGCCCGCGCA
DNA 2: TGCGCGGGCGAT
As to B2, the binding result in the data set with Cac1C (C-terminal WHD) [2] is reported as “binds”.

B3: 58 bp (dsDNA)
DNA 1: ATACATTTTATGACTGGAAACTTTTTTGTACAACACTCCAATAAACATTTTGATTTTA
DNA 2: TAAAATCAAAATGTTTATTGGAGTGTTGTACAAAAAAGTTTCCAGTCATAAAATGTAT
As for B3, the binding result with Cac1C K577E, with Cac1C K553E, in the data set with Cac1C K583E, in the data set with Cac1C (C-terminal WHD) [3], in the data set with Mmp150C and in the data set with Hsp150C was “binds” each time. Besides, the binding result with Mmp150C 4KE is “no binding”.

B4: 58 bp biotinylated (dsDNA)
DNA 1: ATACATTTTATGACTGGAAACTTTTTTGTACAACACTCCAATAAACATTTTGATTTTA
DNA 2: TAAAATCAAAATGTTTATTGGAGTGTTGTACAAAAAAGTTTCCAGTCATAAAATGTAT
modifications: biotin on one strand
As to B4, the figures for the binding result (in data set [4]; with Cac1C (C-terminal WHD) [5]; with GST-Cac2) were “binds”, “binds” and “no binding”, respectively.
With CAACAAAACCCCAACCCCAAACCACACC (ssDNA) [ssDNA], in the data set with Cac1C (C-terminal WHD) [6], the binding result is reported as “binds”.
